Test results from PMC2797226 (The Journal of Biological Chemistry, 2009).
Values belong to the binder of their own block, whether it stands above or below them.

Molecular target: T1, His6-tagged Lhs1p (wild type) (S. cerevisiae, UniProt P36016 21-881)
T1 sequence: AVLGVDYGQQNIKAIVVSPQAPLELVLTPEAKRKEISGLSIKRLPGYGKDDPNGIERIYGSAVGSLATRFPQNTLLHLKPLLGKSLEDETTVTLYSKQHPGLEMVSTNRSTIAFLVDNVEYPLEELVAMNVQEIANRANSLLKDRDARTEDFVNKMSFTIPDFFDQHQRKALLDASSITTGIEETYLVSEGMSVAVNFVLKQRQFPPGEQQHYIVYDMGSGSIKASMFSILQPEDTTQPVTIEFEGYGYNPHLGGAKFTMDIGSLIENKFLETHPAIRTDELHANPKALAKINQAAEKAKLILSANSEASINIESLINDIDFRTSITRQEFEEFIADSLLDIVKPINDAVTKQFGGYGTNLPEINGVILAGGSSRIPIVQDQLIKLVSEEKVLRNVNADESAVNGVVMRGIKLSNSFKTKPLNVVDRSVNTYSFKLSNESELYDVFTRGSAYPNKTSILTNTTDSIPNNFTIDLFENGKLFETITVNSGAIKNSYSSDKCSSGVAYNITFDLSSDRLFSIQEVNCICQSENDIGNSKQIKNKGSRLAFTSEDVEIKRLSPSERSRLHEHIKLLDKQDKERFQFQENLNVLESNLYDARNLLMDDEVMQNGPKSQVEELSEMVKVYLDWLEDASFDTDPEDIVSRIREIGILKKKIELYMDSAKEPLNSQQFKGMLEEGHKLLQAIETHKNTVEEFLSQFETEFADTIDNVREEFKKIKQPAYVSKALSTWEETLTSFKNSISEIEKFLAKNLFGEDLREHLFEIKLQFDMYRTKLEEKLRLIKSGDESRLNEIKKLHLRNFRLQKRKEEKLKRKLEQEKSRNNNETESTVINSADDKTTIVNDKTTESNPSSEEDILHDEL
Test: pull-down

- binding result: binds
B1: GST-tagged Kar2p (wild type) (natural protein)
chain: not shown

- binding result: binds
B2: GST-tagged Kar2p(G246D) (natural protein)
chain: not shown
